For orientation: stoichiometry N means the number of molecules, sites or subunits per partner or assembly.

Data on 3 substances can be found in paper PMC6614362.

The target in assay [1] is RsbR:RsbS complex (preformed, purified by gel filtration) (L. monocytogenes). Briefly: SEC; purified RsbR and RsbS mixed, complex taken from Superose 6 void volume, combined with excess RsbT (4 °C, 4 h), Superose 6 in 20 mM Tris HCl pH 8.5, 150 mM NaCl, 1 mM ADP, 1 mM DTT; fractions analysed by SDS-PAGE. (In general: In gel filtration, larger molecules generally elute earlier.)

The target of assay [2] is RsbS (Listeria monocytogenes stressosome component) (L. monocytogenes). The description is as above.
In assay [3] the target is RsbR (Listeria monocytogenes stressosome component) (L. monocytogenes). Briefly: cryo-EM structure; stressosome assembled from purified RsbR, RsbS and RsbT with 1 mM ADP; 20 µg/ml on Quantifoil grids; maps at 4.48 Å (no symmetry) and 3.38 Å (icosahedral symmetry, turrets masked out).
Assay [4] has as its target RsbS (Listeria monocytogenes stressosome component) (L. monocytogenes). The assay is described as above.

On to “RsbT (Listeria monocytogenes stressosome kinase) (enzyme)”, for which the stoichiometry N (RsbT per RsbS (RsbR:RsbS:RsbT 2:1:1)) in assay [1] was determined as 1. Turning to “RsbR (Listeria monocytogenes stressosome component) (natural protein)”, in assay [2], the stoichiometry N (RsbR per RsbS) worked out at 2. Moreover, the stoichiometry N in assay [3] came out at 2. For the substance “RsbS (Listeria monocytogenes stressosome component) (natural protein)”, the stoichiometry N in assay [4] came out at 2.
